Data: publication PMC2838799, “Aptamer Antagonists of Myelin-Derived Inhibitors Promote Axon Growth”

Target: T1, Nogo-66 receptor (NgR)/Fc chimera (rat, UniProt Q99M75 27-447)
T1 sequence: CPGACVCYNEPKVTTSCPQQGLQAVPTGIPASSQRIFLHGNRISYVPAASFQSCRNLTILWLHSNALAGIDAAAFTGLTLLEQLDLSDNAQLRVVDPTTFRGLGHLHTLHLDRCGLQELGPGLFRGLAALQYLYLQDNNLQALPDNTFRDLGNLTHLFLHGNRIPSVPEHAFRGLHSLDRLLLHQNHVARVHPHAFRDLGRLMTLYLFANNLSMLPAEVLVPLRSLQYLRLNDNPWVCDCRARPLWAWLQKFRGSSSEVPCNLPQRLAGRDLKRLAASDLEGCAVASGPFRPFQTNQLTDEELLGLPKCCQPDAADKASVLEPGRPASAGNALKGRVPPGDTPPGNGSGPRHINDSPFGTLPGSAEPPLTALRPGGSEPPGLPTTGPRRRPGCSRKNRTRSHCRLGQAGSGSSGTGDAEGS
Experiment: filter binding; three-point estimate, data not shown; Selection buffer PBS pH 7.4, 3 mM MgCl2; RNA 0.5 nM, NgR/Fc 12.5-500 nM for Kd; competition 20 min at 37 C
Conditions: protein: commercial; tags: human IgG Fc fusion; chain copies: 2; label: 32P

B1: Clone 6 (ssRNA)
RNA: GGGUUUACCUAGGUGUAGAUGCUCUCUCUAUUUCAUUCGUAGGCUAUUGGUGCCGCAAAUACUAGCUUUACGAAAGUGACGUCUGAACUGCUUCGAAAA
**Q.** Does B1 bind?
**A.** Result: binds
